Laboratory results as given in publication PMC9293779 (2022).

Biological target: Unmodified H3 (15–39) (Homo sapiens, matured GFP-type chromophore; AG itself is the assayed negative control. Accession is from memory; wild-type AG assumed rather than the monomeric version)
Test: ITC

B1: Azami-Green (AG) protein alone (natural protein)
chain: MSVIKPEMKIKLCMRGTVNGHNFVIEGEGKGNPYEGTQILDLNVTEGAPLPFAYDILTTVFQYGNRAFTKYPADIQDYFKQTFPEGYHWERSMTYEDQGICTATSNISMRGDCFFYDIRFDGVNFPPNGPVMQKKTLKWEPSTEKMYVRDGVLKGDVNMALLLEGGGHYRCDFKTTYKAKKDVRLPDYHFVDHRIEILKHDKDYNKVKLYENAVARYSMLPSQAK
Kd: > 1000 µM
